B1: CD3.23-L7 (AC3364) (bispecific antibody, V domains shown)
VH: EVQLLESGGGIVQPGGSLKLSCAASGFTFNTYAMNWVRQAPGKGLEWVARIRSKYNNYATYYADSVKDRFTISRDDSKNTVYLQMNNLKTEDTAVYYCVRHENFGNSYVSWFAHWGQGTLVTVSS
VL: ELVVTQEPSLTVSPGGTVTLTCRSSNGAVTSSNYANWVQQKPGQAPRGLIGGTNKRAPGTPARFSGSLLGGKAALTLSGVQPEDEAVYYCALWYPNLWVFGGGTKLTVL
B2: CD3.68 (AC3397) (bispecific antibody, V domains shown)
VH: EVQLLESGGGIVQPGGSLKLSCAASGFTFNTYAMNWVRQAPGKGLEWVARIRSPYNNYATYYADSVKDRFTISRDDSKNTVYLQMNNLKTEDTAVYYCVRHENFGNSYVSWFAHWGQGTLVTVSS
VL: ELVVTQEPSLTVSPGGTVTLTCRSSNGAVTSSNYANWVQQKPGQAPRGLIGGTNKRAPGTPARFSGSLLGGKAALTLSGVQPEDEAVYYCALWYPNLWVFGGGTKLTVL
B3: CD3.39 (AC3368) (bispecific antibody, V domains shown)
VH: EVQLLESGGGIVQPGGSLKLSCAASGFTFNTYAMNWVRQAPGKGLEEVARIRSKYNNYATYYADSVKDRFTISRDDSKNTVYLQMNNLKTEDTAVYYCVRHENFGNSYVSWFAHWGQGTLVTVSS
VL: ELVVTQEPSLTVSPGGTVTLTCRSSNGAVTSSNYANWVQQKPGQAPRGLIGGTNKRAPGTPARFSGSLLGGKAALTLSGVQPEDEAVYYCALWYPNLWVFGGGTKLTVL
B4: CD3.45 (AC3374) (bispecific antibody, V domains shown)
VH: EVQLLESGGGIVQPGGSLKLSCAASGFTFNTYAMNWVRQAPGKGLEWWARIRSKYNNYATYYADSVKDRFTISRDDSKNTVYLQMNNLKTEDTAVYYCVRHENFGNSYVSWFAHWGQGTLVTVSS
VL: ELVVTQEPSLTVSPGGTVTLTCRSSNGAVTSSNYANWVQQKPGQAPRGLIGGTNKRAPGTPARFSGSLLGGKAALTLSGVQPEDEAVYYCALWYPNLWVFGGGTKLTVL
B5: CD3.70 (AC3399) (bispecific antibody, V domains shown)
VH: EVQLLESGGGIVQPGGSLKLSCAASGFTFNTYAMNWVRQAPGKGLEWVARIRSKRNNYATYYADSVKDRFTISRDDSKNTVYLQMNNLKTEDTAVYYCVRHENFGNSYVSWFAHWGQGTLVTVSS
VL: ELVVTQEPSLTVSPGGTVTLTCRSSNGAVTSSNYANWVQQKPGQAPRGLIGGTNKRAPGTPARFSGSLLGGKAALTLSGVQPEDEAVYYCALWYPNLWVFGGGTKLTVL
B6: CD3.60 (AC3389) (bispecific antibody, V domains shown)
VH: EVQLLESGGGIVQPGGSLKLSCAASGFTFNTYAMNWVRQAPGKGLEWVARIQSKYNNYATYYADSVKDRFTISRDDSKNTVYLQMNNLKTEDTAVYYCVRHENFGNSYVSWFAHWGQGTLVTVSS
VL: ELVVTQEPSLTVSPGGTVTLTCRSSNGAVTSSNYANWVQQKPGQAPRGLIGGTNKRAPGTPARFSGSLLGGKAALTLSGVQPEDEAVYYCALWYPNLWVFGGGTKLTVL
B7: CD3.54 (AC3383) (bispecific antibody, V domains shown)
VH: EVQLLESGGGIVQPGGSLKLSCAASGFTFNTYAMNWVRQAPGKGLEWVARARSKYNNYATYYADSVKDRFTISRDDSKNTVYLQMNNLKTEDTAVYYCVRHENFGNSYVSWFAHWGQGTLVTVSS
VL: ELVVTQEPSLTVSPGGTVTLTCRSSNGAVTSSNYANWVQQKPGQAPRGLIGGTNKRAPGTPARFSGSLLGGKAALTLSGVQPEDEAVYYCALWYPNLWVFGGGTKLTVL
B8: CD3.48 (AC3377) (bispecific antibody, V domains shown)
VH: EVQLLESGGGIVQPGGSLKLSCAASGFTFNTYAMNWVRQAPGKGLEWVGRIRSKYNNYATYYADSVKDRFTISRDDSKNTVYLQMNNLKTEDTAVYYCVRHENFGNSYVSWFAHWGQGTLVTVSS
VL: ELVVTQEPSLTVSPGGTVTLTCRSSNGAVTSSNYANWVQQKPGQAPRGLIGGTNKRAPGTPARFSGSLLGGKAALTLSGVQPEDEAVYYCALWYPNLWVFGGGTKLTVL
B9: CD3.67 (AC3396) (bispecific antibody, V domains shown)
VH: EVQLLESGGGIVQPGGSLKLSCAASGFTFNTYAMNWVRQAPGKGLEWVARIRTKYNNYATYYADSVKDRFTISRDDSKNTVYLQMNNLKTEDTAVYYCVRHENFGNSYVSWFAHWGQGTLVTVSS
VL: ELVVTQEPSLTVSPGGTVTLTCRSSNGAVTSSNYANWVQQKPGQAPRGLIGGTNKRAPGTPARFSGSLLGGKAALTLSGVQPEDEAVYYCALWYPNLWVFGGGTKLTVL
B10: CD3.72 (AC3401) (bispecific antibody, V domains shown)
VH: EVQLLESGGGIVQPGGSLKLSCAASGFTFNTYAMNWVRQAPGKGLEWVARIRSKKNNYATYYADSVKDRFTISRDDSKNTVYLQMNNLKTEDTAVYYCVRHENFGNSYVSWFAHWGQGTLVTVSS
VL: ELVVTQEPSLTVSPGGTVTLTCRSSNGAVTSSNYANWVQQKPGQAPRGLIGGTNKRAPGTPARFSGSLLGGKAALTLSGVQPEDEAVYYCALWYPNLWVFGGGTKLTVL
B11: CD3.41 (AC3370) (bispecific antibody, V domains shown)
VH: EVQLLESGGGIVQPGGSLKLSCAASGFTFNTYAMNWVRQAPGKGLEWEARIRSKYNNYATYYADSVKDRFTISRDDSKNTVYLQMNNLKTEDTAVYYCVRHENFGNSYVSWFAHWGQGTLVTVSS
VL: ELVVTQEPSLTVSPGGTVTLTCRSSNGAVTSSNYANWVQQKPGQAPRGLIGGTNKRAPGTPARFSGSLLGGKAALTLSGVQPEDEAVYYCALWYPNLWVFGGGTKLTVL
B12: CD3.69 (AC3398) (bispecific antibody, V domains shown)
VH: EVQLLESGGGIVQPGGSLKLSCAASGFTFNTYAMNWVRQAPGKGLEWVARIRSKANNYATYYADSVKDRFTISRDDSKNTVYLQMNNLKTEDTAVYYCVRHENFGNSYVSWFAHWGQGTLVTVSS
VL: ELVVTQEPSLTVSPGGTVTLTCRSSNGAVTSSNYANWVQQKPGQAPRGLIGGTNKRAPGTPARFSGSLLGGKAALTLSGVQPEDEAVYYCALWYPNLWVFGGGTKLTVL
B13: CD3.43 (AC3372) (bispecific antibody, V domains shown)
VH: EVQLLESGGGIVQPGGSLKLSCAASGFTFNTYAMNWVRQAPGKGLEWSARIRSKYNNYATYYADSVKDRFTISRDDSKNTVYLQMNNLKTEDTAVYYCVRHENFGNSYVSWFAHWGQGTLVTVSS
VL: ELVVTQEPSLTVSPGGTVTLTCRSSNGAVTSSNYANWVQQKPGQAPRGLIGGTNKRAPGTPARFSGSLLGGKAALTLSGVQPEDEAVYYCALWYPNLWVFGGGTKLTVL
B14: CD3.56 (AC3385) (bispecific antibody, V domains shown)
VH: EVQLLESGGGIVQPGGSLKLSCAASGFTFNTYAMNWVRQAPGKGLEWVARTRSKYNNYATYYADSVKDRFTISRDDSKNTVYLQMNNLKTEDTAVYYCVRHENFGNSYVSWFAHWGQGTLVTVSS
VL: ELVVTQEPSLTVSPGGTVTLTCRSSNGAVTSSNYANWVQQKPGQAPRGLIGGTNKRAPGTPARFSGSLLGGKAALTLSGVQPEDEAVYYCALWYPNLWVFGGGTKLTVL
B15: CD3.38 (AC3367) (bispecific antibody, V domains shown)
VH: EVQLLESGGGIVQPGGSLKLSCAASGFTFNTYAMNWVRQAPGKGLEDVARIRSKYNNYATYYADSVKDRFTISRDDSKNTVYLQMNNLKTEDTAVYYCVRHENFGNSYVSWFAHWGQGTLVTVSS
VL: ELVVTQEPSLTVSPGGTVTLTCRSSNGAVTSSNYANWVQQKPGQAPRGLIGGTNKRAPGTPARFSGSLLGGKAALTLSGVQPEDEAVYYCALWYPNLWVFGGGTKLTVL
B16: CD3.40 (AC3369) (bispecific antibody, V domains shown)
VH: EVQLLESGGGIVQPGGSLKLSCAASGFTFNTYAMNWVRQAPGKGLEWAARIRSKYNNYATYYADSVKDRFTISRDDSKNTVYLQMNNLKTEDTAVYYCVRHENFGNSYVSWFAHWGQGTLVTVSS
VL: ELVVTQEPSLTVSPGGTVTLTCRSSNGAVTSSNYANWVQQKPGQAPRGLIGGTNKRAPGTPARFSGSLLGGKAALTLSGVQPEDEAVYYCALWYPNLWVFGGGTKLTVL
B17: CD3.73 (AC3402) (bispecific antibody, V domains shown)
VH: EVQLLESGGGIVQPGGSLKLSCAASGFTFNTYAMNWVRQAPGKGLEWVARIRSKPNNYATYYADSVKDRFTISRDDSKNTVYLQMNNLKTEDTAVYYCVRHENFGNSYVSWFAHWGQGTLVTVSS
VL: ELVVTQEPSLTVSPGGTVTLTCRSSNGAVTSSNYANWVQQKPGQAPRGLIGGTNKRAPGTPARFSGSLLGGKAALTLSGVQPEDEAVYYCALWYPNLWVFGGGTKLTVL
B18: CD3.71 (AC3400) (bispecific antibody, V domains shown)
VH: EVQLLESGGGIVQPGGSLKLSCAASGFTFNTYAMNWVRQAPGKGLEWVARIRSKGNNYATYYADSVKDRFTISRDDSKNTVYLQMNNLKTEDTAVYYCVRHENFGNSYVSWFAHWGQGTLVTVSS
VL: ELVVTQEPSLTVSPGGTVTLTCRSSNGAVTSSNYANWVQQKPGQAPRGLIGGTNKRAPGTPARFSGSLLGGKAALTLSGVQPEDEAVYYCALWYPNLWVFGGGTKLTVL
B19: CD3.44 (AC3373) (bispecific antibody, V domains shown)
VH: EVQLLESGGGIVQPGGSLKLSCAASGFTFNTYAMNWVRQAPGKGLEWTARIRSKYNNYATYYADSVKDRFTISRDDSKNTVYLQMNNLKTEDTAVYYCVRHENFGNSYVSWFAHWGQGTLVTVSS
VL: ELVVTQEPSLTVSPGGTVTLTCRSSNGAVTSSNYANWVQQKPGQAPRGLIGGTNKRAPGTPARFSGSLLGGKAALTLSGVQPEDEAVYYCALWYPNLWVFGGGTKLTVL
B20: CD3.23-D (AC3366) (bispecific antibody, V domains shown)
VH: EVQLLESGGGIVQPGGSLKLSCAASGFTFNTYAMNWVRQAPGKGLEWVARIRSKYNNYATYYADSVKDRFTISRDDSKNTVYLQMNNLKTEDTAVYYCVRHENFGNSYVSWFAHWGQGTLVTVSS
VL: ELVVTQEPSLTVSPGGTVTLTCRSSNGAVTSSNYANWVQQKPGQAPRGLIGGTNKRAPGTPARFSGSLLGGKAALTLSGVQPEDEAVYYCALWYPNLWVFGGGTKLTVL
B21: CD3.42 (AC3371) (bispecific antibody, V domains shown)
VH: EVQLLESGGGIVQPGGSLKLSCAASGFTFNTYAMNWVRQAPGKGLEWGARIRSKYNNYATYYADSVKDRFTISRDDSKNTVYLQMNNLKTEDTAVYYCVRHENFGNSYVSWFAHWGQGTLVTVSS
VL: ELVVTQEPSLTVSPGGTVTLTCRSSNGAVTSSNYANWVQQKPGQAPRGLIGGTNKRAPGTPARFSGSLLGGKAALTLSGVQPEDEAVYYCALWYPNLWVFGGGTKLTVL

The values that follow come from patent US20250188184A1.

Sequence of CD3 (target of the Pool 1 CD3.23 screen) (P07766 23-126): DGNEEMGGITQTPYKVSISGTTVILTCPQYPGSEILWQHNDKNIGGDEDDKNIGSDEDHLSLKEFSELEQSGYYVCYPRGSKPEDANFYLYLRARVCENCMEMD

The experiment concerns the target CD3 (target of the Pool 1 CD3.23 screen). The experiment can be described thus: Octet, crude lysate. For orientation: Biolayer interferometry detects binding as a change in optical thickness at a sensor tip.
Molecule B1 came in with a Kd of 8.5 nM.

B2 displayed a Kd of 51 nM. Compared with the last molecule, the Kd is about 6-fold higher.

Consider B3, for which the Kd stood at 18.1 nM.

B4 registered a Kd of 34300 nM.

B5 registered an equilibrium dissociation constant (Kd) of 3.8 nM.

In turn, B6 yielded a Kd of 434 nM. This Kd lies about 110-fold higher than the previous one.

B7: the Kd was 1180 nM. This Kd is about 2.7-fold higher than that of the molecule before.

In turn, B8 gave a Kd of 4.5 nM.

B9: the Kd turned out to be 4.8 nM.

B10 gave a Kd of 5.1 nM.

With B11, the Kd was 165 nM.

As for B12, the Kd worked out at 11.5 nM.

On to B13, for which the Kd was 11.2 nM.

In turn, B14 came in with a dissociation constant (Kd) of 425 nM. This Kd is about 38-fold higher than that of the molecule before.

Take B15: the Kd was determined as 40.2 nM.

Molecule B16 had a dissociation constant Kd of 8.3 nM.

With B17, the dissociation constant (Kd) amounted to 33.1 nM.

On to B18, for which the Kd stood at 20.1 nM.

The molecule B19 had a Kd of 5.7 nM.

B20 showed a Kd of 14 nM.

B21 showed a Kd of 71.5 nM.

By Kd is commonly meant a measure of binding affinity in units of concentration. Read a low Kd as tighter binding.
